# Numbering of substitutions follows the chain as printed.
# T1: recombinant human CD3ε-CD3δ heterodimeric protein (CD3εδ) (Homo sapiens)
# T1 construct: human CD3ε of the recombinant CD3εδ heterodimer; human CD3δ of the recombinant CD3εδ heterodimer; source: in-house prepared
# T1 chain 1: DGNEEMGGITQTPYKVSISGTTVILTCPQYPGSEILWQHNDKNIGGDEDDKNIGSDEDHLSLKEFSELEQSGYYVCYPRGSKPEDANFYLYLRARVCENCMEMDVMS
# T1 chain 2: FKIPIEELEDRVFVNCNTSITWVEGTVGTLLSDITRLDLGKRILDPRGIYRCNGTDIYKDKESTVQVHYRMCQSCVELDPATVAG
# B1: m2C4 mIgG2a V1+C19, homodimeric antibody with FAST-Ig V1+C19 mutations (antibody, V domains shown)
# VH: EVQLQQSGPELVKPGTSVKISCKASGFTFTDYTMDWVKKSHGKSLEWIGDVNPNSGGSIYNQRFKGKASLTVDRSSRIVYMELRSLTFEDTAVYYCARNLGPSFYFDYWGQGTTLTVSS
# VL: DTVMTQSHKIMSTSVGDRVSITCKASQDVSIGVAWYQERPGQSPKLLIYSASYRYTGVPDRFTGSGSGTDFTFTISSVQAEDLAVYYCQQYYIYPYTFGGGTKLEIK
# notes: VH of m2C4; mouse IgG2a (mIgG2a) heavy chain constant region; K147 kept; numbers count on: Eu numbering; VL of m2C4; mouse kappa light chain constant region (CL); numbers count on: Kabat numbering; Whole IgG of one HC and one LC; also called anti-HER2; H1L1H1L1; source: Expi293F, transiently expressed, purified (Ab-Capcher MAG2, MonoSpin ProA or MonoSpin ProG); copies: 2 + 2
# B2: m2C4 mIgG1 V1+C19, homodimeric antibody with FAST-Ig V1+C19 mutations (antibody, V domains shown)
# VH: B1 VH
# VL: B1 VL
# notes: VH of m2C4; mouse IgG1 (mIgG1) heavy chain constant region; K147 kept; numbers count on: Eu numbering; VL of m2C4; mouse kappa light chain constant region (CL); numbers count on: Kabat numbering; Whole IgG of one HC and one LC; also called anti-HER2; H1L1H1L1; source: Expi293F, transiently expressed, purified (Ab-Capcher MAG2 or MonoSpin ProG); copies: 2 + 2
# B3: m2C4 mIgG1, homodimeric antibody without FAST-Ig mutations (antibody, V domains shown)
# VH: B1 VH with K39Q
# VL: B1 VL with E38Q
# notes: VH of the original mouse antibody m2C4; mouse IgG1 (mIgG1) heavy chain constant region; numbers count on: Eu numbering; VL of the original mouse antibody m2C4; mouse kappa light chain constant region (CL); Whole IgG of one HC and one LC; also called anti-HER2; H1L1H1L1; source: Expi293F, transiently expressed, purified (Ab-Capcher MAG2 or MonoSpin ProG); copies: 2 + 2
# B4: m4D5 mIgG1, homodimeric antibody without FAST-Ig mutations (antibody, V domains shown)
# VH: QVQLQQSGPELVKPGASLKLSCTASGFNIKDTYIHWVKQRPEQGLEWIGRIYPTNGYTRYDPKFQDKATITADTSSNTAYLQVSRLTSEDTAVYYCSRWGGDGFYAMDYWGQGASVTVSS
# VL: DIVMTQSHKFMSTSVGDRVSITCKASQDVNTAVAWYQQKPGHSPKLLIYSASFRYTGVPDRFTGSRSGTDFTFTISSVQAEDLAVYYCQQHYTTPPTFGGGTKVEIK
# notes: VH of the original mouse antibody m4D5; mouse IgG1 (mIgG1) heavy chain constant region; numbers count on: Eu numbering; VL of m4D5; mouse kappa light chain constant region (CL); Whole IgG of one HC and one LC; also called anti-HER2; H1L1H1L1; source: Expi293F, transiently expressed, purified (Ab-Capcher MAG2 or MonoSpin ProG); copies: 2 + 2
# B5: m4D5 mIgG1 V1+C19, homodimeric antibody with FAST-Ig V1+C19 mutations (antibody, V domains shown)
# VH: B4 VH with Q39K
# VL: B4 VL with Q38E
# notes: VH of m4D5; mouse IgG1 (mIgG1) heavy chain constant region; K147 kept; numbers count on: Eu numbering; VL of m4D5; mouse kappa light chain constant region (CL); numbers count on: Kabat numbering; Whole IgG of one HC and one LC; also called anti-HER2; H1L1H1L1; source: Expi293F, transiently expressed, purified (Ab-Capcher MAG2 or MonoSpin ProG); copies: 2 + 2
# B6: m4D5 mIgG2a, homodimeric antibody without FAST-Ig mutations (antibody, V domains shown)
# VH: B4 VH
# VL: B4 VL
# notes: VH of the original mouse antibody m4D5; mouse IgG2a (mIgG2a) heavy chain constant region; numbers count on: Eu numbering; VL of m4D5; mouse kappa light chain constant region (CL); Whole IgG of one HC and one LC; also called anti-HER2; H1L1H1L1; source: Expi293F, transiently expressed, purified (Ab-Capcher MAG2, MonoSpin ProA or MonoSpin ProG); copies: 2 + 2
# B7: m4D5 mIgG2a V1+C19, homodimeric antibody with FAST-Ig V1+C19 mutations (antibody, V domains shown)
# VH: B4 VH with Q39K
# VL: B4 VL with Q38E
# notes: VH of m4D5; mouse IgG2a (mIgG2a) heavy chain constant region; K147 kept; numbers count on: Eu numbering; VL of m4D5; mouse kappa light chain constant region (CL); numbers count on: Kabat numbering; Whole IgG of one HC and one LC; also called anti-HER2; H1L1H1L1; source: Expi293F, transiently expressed, purified (Ab-Capcher MAG2, MonoSpin ProA or MonoSpin ProG); copies: 2 + 2
# B8: mUCHT1 mIgG1 V1+C19, homodimeric antibody with FAST-Ig V1+C19 mutations (antibody, V domains shown)
# VH: EVQLQQSGPELVKPGASMKISCKASGYSFTGYTMNWVKESHGKNLEWMGLINPYKGVSTYNQKFKDKATLTVDKSSSTAYMELLSLTSEDSAVYYCARSGYYGDSDWYFDVWGQGTTLTVFS
# VL: DIQMTQTTSSLSASLGDRVTISCRASQDIRNYLNWYQKKPDGTVKLLIYYTSRLHSGVPSKFSGSGSGTDYSLTISNLEQEDIATYFCQQGNTLPWTFAGGTKLEIK
# notes: VH of mUCHT1; mouse IgG1 (mIgG1) heavy chain constant region; numbers count on: Eu numbering; VL of mUCHT1; mouse kappa light chain constant region (CL); numbers count on: Kabat numbering; Whole IgG of one HC and one LC; also called anti-CD3; H2L2H2L2; source: Expi293F, transiently expressed, purified (Ab-Capcher MAG2 or MonoSpin ProG); copies: 2 + 2
# B9: mUCHT1 mIgG2a, homodimeric antibody without FAST-Ig mutations (antibody, V domains shown)
# VH: B8 VH with E39Q
# VL: B8 VL with K38Q
# notes: VH of the original mouse antibody mUCHT1; mouse IgG2a (mIgG2a) heavy chain constant region; numbers count on: Eu numbering; VL of the original mouse antibody mUCHT1; mouse kappa light chain constant region (CL); Whole IgG of one HC and one LC; also called anti-CD3; H2L2H2L2; source: Expi293F, transiently expressed, purified (Ab-Capcher MAG2, MonoSpin ProA or MonoSpin ProG); copies: 2 + 2
# B10: mSP34 mIgG1 V1+C19, homodimeric antibody with FAST-Ig V1+C19 mutations (antibody, V domains shown)
# VH: EVQLVESGGGLVQPKGSLKLSCAASGFTFNTYAMNWVREAPGKGLEWVARIRSKYNNYATYYADSVKDRFTISRDDSQSILYLQMNNLKTEDTAMYYCVRHGNFGNSYVSWFAYWGQGTLVTVSA
# VL: QAVVTQESALTTSPGETVTLTCRSSTGAVTTSNYANWVQKKPDHLFTGLIGGTNKRAPGVPARFSGSLIGDKAALTITGAQTEDEAIYFCALWYSNLWVFGGGTKLTVL
# notes: VH of mSP34; mouse IgG1 (mIgG1) heavy chain constant region; numbers count on: Eu numbering; VL (lambda) of mSP34; mouse lambda light chain constant region (CL); numbers count on: Kabat numbering; Whole IgG of one HC and one LC; also called anti-CD3; H2L2H2L2; source: Expi293F, transiently expressed, purified (Ab-Capcher MAG2 or MonoSpin ProG); copies: 2 + 2
# B11: mSP34 mIgG2a, homodimeric antibody without FAST-Ig mutations (antibody, V domains shown)
# VH: B10 VH with E39Q
# VL: B10 VL with K40E
# notes: VH of the original mouse antibody mSP34; mouse IgG2a (mIgG2a) heavy chain constant region; numbers count on: Eu numbering; VL (lambda) of the original mouse antibody mSP34; mouse lambda light chain constant region (CL); Whole IgG of one HC and one LC; also called anti-CD3; H2L2H2L2; source: Expi293F, transiently expressed, purified (Ab-Capcher MAG2, MonoSpin ProA or MonoSpin ProG); copies: 2 + 2
# Biological target: T2, recombinant human HER2 (Sino Biological, 10004-H08H) (Homo sapiens, UniProt P04626)
# T2 construct: human epidermal growth factor receptor 2 (HER2), recombinant; also called human epidermal growth factor receptor 2; source: bought: Sino Biological
# Assay: SPR; Biacore T200, 37 °C, pH 7.4, PB-P+ (0.05 mol/L Na-phosphate, 0.15 mol/L NaCl, 0.05% P-20); antibody captured (200 RU) by anti-mouse IgG (Fc) antibody on a CM4 chip; human HER2 as analyte, 6.3-100 nmol/L; 1:1 binding model
# Details: both partners purified
row,Kd,Binder
1,1.36 nM,B1
2,0.784 nM,B2
3,0.759 nM,B3
4,1.03 nM,B4
5,1.27 nM,B5
6,1.14 nM,B6
7,0.96 nM,B7

# Biological target: T1, recombinant human CD3ε-CD3δ …
# Assay: SPR; Biacore T200, 37 °C, pH 7.4, PB-P+; antibody captured (630 RU) by anti-mouse IgG (Fc) antibody on a CM4 chip; human CD3εδ as analyte, 1.2-4800 nmol/L; 1:1 binding model (mUCHT1, mSP34)
# Details: both partners purified
row,Kd,Binder
1,1.32 nM,B8
2,1.02 nM,B9
3,56.9 nM,B10
4,16 nM,B11
